Test results taken from PMC5799372, “A NIN-LIKE PROTEIN mediates nitrate-induced control of root nodule symbiosis in Lotus japonicus”.

Key:
NRSYM1(531-976)-myc [1] = molecular target: T1, NRSYM1(531-976)-myc (Lotus japonicus (WT, MG-20?), UniProt A0A2Z5V8A6 531-976); experiment: EMSA; 20 mM HEPES-KOH pH 7.9, 50 mM KCl, 1 mM DTT, 4% glycerol, 0.1% Triton X-100, BSA (2 mg) and salmon sperm DNA (1 mg) as printed, 10 ul, 30 min room temperature; settings: protein: ivt, tags: 3xMyc (cds cloned downstream of the tag, N-terminal), 5' overhang 4 nt (ggtg) on both strands as printed
NRSYM1(531-976)-myc [2] = molecular target: T1, NRSYM1(531-976)-myc; experiment: competition; unlabeled competitor 20x/100x vs CLE-RS2-1 probe; 20 mM HEPES-KOH pH 7.9, 50 mM KCl, 1 mM DTT, 4% glycerol, 0.1% Triton X-100, BSA (2 mg) and salmon sperm DNA (1 mg) as printed, 10 ul, 30 min room temperature; settings: protein: ivt; tags: 3xMyc (cds cloned downstream of the tag, N-terminal); label: biotin (probe); 5' overhang 4 nt (ggtg) on both strands as printed

T1 sequence (A0A2Z5V8A6 entry or part of it): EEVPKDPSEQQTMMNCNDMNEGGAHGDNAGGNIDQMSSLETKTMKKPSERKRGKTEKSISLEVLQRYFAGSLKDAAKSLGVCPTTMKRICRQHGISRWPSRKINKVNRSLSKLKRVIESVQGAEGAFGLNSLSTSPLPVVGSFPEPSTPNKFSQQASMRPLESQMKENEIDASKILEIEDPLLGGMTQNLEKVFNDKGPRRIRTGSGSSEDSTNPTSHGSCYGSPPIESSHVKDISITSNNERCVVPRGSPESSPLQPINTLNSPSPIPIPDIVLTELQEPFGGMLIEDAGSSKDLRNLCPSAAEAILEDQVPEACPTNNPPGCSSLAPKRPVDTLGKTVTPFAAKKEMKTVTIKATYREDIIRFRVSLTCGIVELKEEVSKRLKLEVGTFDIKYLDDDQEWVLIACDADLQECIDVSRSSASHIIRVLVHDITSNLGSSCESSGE

B1: LjNIR1-3 (dsDNA)
DNA 1: GGTGACACAAACACGACCCTTTGTCACAACCAAAGGTCCATTGTAGCA
DNA 2: GGTGTGCTACAATGGACCTTTGGTTGTGACAAAGGGTCGTGTTTGTGT
B1: binds (NRSYM1(531-976)-myc [1]; label: biotin (probe)).

B2: LjNIR1-3m1 (dsDNA)
DNA 1: GGTGACACAAACACGAGGGAATGTCACAACCAAAGGTCCATTGTAGCA
DNA 2: GGTGTGCTACAATGGACCTTTGGTTGTGACATTCCCTCGTGTTTGTGT
B2: no binding (NRSYM1(531-976)-myc [1]; label: biotin).

B3: CLE-RS2-4 (dsDNA)
DNA 1: GGTGATATATTCATGATCTTTAATTCACTTGAAGAGTTAGTGATTGAT
DNA 2: GGTGATCAATCACTAACTCTTCAAGTGAATTAAAGATCATGAATATAT
B3: binds (NRSYM1(531-976)-myc [1]; label: biotin (probe)).

B4: CLE-RS2-1 (dsDNA)
DNA 1: GGTGTGTGAGTTCTGACCCTTAAGCCTTGGAAAGGACAGTCATGCAA
DNA 2: GGTGTTGCATGACTGTCCTTTCCAAGGCTTAAGGGTCAGAACTCACA
B4: binds (NRSYM1(531-976)-myc [1]; label: biotin (probe)).

B5: CLE-RS2-1m (dsDNA)
DNA 1: GGTGTGTGAGTTCTGAGGGAAAAGCCTTGGAAAGGACAGTCATGCAA
DNA 2: GGTGTTGCATGACTGTCCTTTCCAAGGCTTTTCCCTCAGAACTCACA
B5: no binding (NRSYM1(531-976)-myc [2]).

B6: CLE-RS2-3 (dsDNA)
DNA 1: GGTGGTATCAAACTGACCCCTAGTTTCAGTCCAAAGCCACCTTGATTG
DNA 2: GGTGCAATCAAGGTGGCTTTGGACTGAAACTAGGGGTCAGTTTGATAC
B6: binds (NRSYM1(531-976)-myc [1]; label: biotin (probe)).
